Test: label from the status in PepcDB records

Sequence: MHRTTRIKITELNPHLMCVLCGGYFIDATTIIECLHSFCKTCIVRYLETSKYCPICDVQVHKTRPLLNIRSDKTLQDIVYKLVPGLFKNEMKRRRDFYAAHPSADAANGSNEDRGEVADEDKRIITDDEIISLSIEFFDQNRLDRKVNKDKEKSKEEVNDKRYLRCPAAMTVMHLRKFLRSKMDIPNTFQIDVMYEEEPLKDYYTLMDIAYIYTWRRNGPLPLKYRVRPTCKRMKISHQRDGLTNAGELESDSGSDKANSPAGGVPSTSSCLPSPSTPVQSPHPQFPHISSTMNGTSNSPSGNHQSSFANRPRKSSVNGSSATSSG
- protein production: failed

Sequence: MHSLARRALHTCNVPRDLNPVTFCDTAGEHPDRVGLDSNAAEAVWRSVEALYRTGVHPGIQLSLRYRGEQVLHRSIGHARGNGPHDPASLPRIPMTTDTPICFFSASKAVTALLMHMLSEQGLVNLMDPVSYYCPEFARNGKRTITVHQILSHRGGIPAIPRETPIDVLWDRDEIWRLLCAAKPVEVDGAKVAYHAITGGFVLQRVLEKVTGDTIESYLDRYLRRPMGMKWFTYGIAPEHLHELASNYATGPTPRFPVSWVVNRALGGDIRTVEKVTNDPRFQEAVIPAGNLCGTAEEMGRFFQMMLNGGSWDGKRICSELTVRRAIQQFGSLQMDRTMLVPMRFSAGMMLGSNPVGLWGQQSRYAFGHVGLINKLCWADPARDISVSLLNTGFPIVGHHLPALARFVYTVCKQFPVLPENQRRLVAA
- protein production: failed

Sequence: MHSMKLLVTGGMGFIGSNFIRYILEKHPDWEVINIDKLGYGSNPANLKDLEDDPRYTFVKGDVADYELVKELVRKVDGVVHLAAESHVDRSISSPEIFLHSNVIGTYTLLESIRRENPEVRFVHVSTDEVYGDILKGSFTENDRLMPSSPYSATKAASDMLVLGWTRTYNLNASITRCTNNYGPYQFPEKLIPKTIIRASLGLKIPIYGTGKNVRDWLYVEDHVRAIELVLLKGESREIYNISAGEEKTNLEVVKIILRLMGKGEELIELVEDRPGHDLRYSLDSWKITRDLKWRPKYTFDEGIKKTIDWYLKNEWWWKPLVDERILHPTPWKLKW
- protein production: not failed

Sequence: MHSPLELTLVLLAAAVIGVVLFRMLQLPPMLAYLVVGVVIGPNATGLESDSAQTRYLAEFGVVFLMFSIGLEFSLAKLRSMRRLVLGLGASQVVLTMLLTVPASLLLSRWYPLSWQASLALGGALAMSSTAIVSKMLAERLQLETEHGRNIISVLLFQDLAVVLLLIVVPSLGKNPTDLVLTLSIAAVKIIVALVLILFLGQKLLSRWFHLVAARRSQELFMLNLLLVTLGMAALTERLGLSMALGAFLAGMLVSETPYRLQVEEDIKPFRDVLLGLFFVTVGMLLDPRVVIGHWGLVIGLVIGPVLFKFALIALLARAFGSGGGTAIRTALGLAQAGEFGFVLLNQIDGMRLIDPLLSQAILAAMLLSMLLAPFLIQYSDAIAMRLSRTDWLMQSLAMTKIAAQSLQTERHVIICGYGRSGQNLAHMLEQEDISYVALDLDPDRVRDAAAAGERVVYGDAARRESLVAAGVHRAAAVAVTYADTASALKVLHHVQALAPTLPVIVRTIDDADLDRLQQAGAAEVVPEIIEGSLMLASHALVLLGVPLRRVVRRAQEMRDARYGLLRGYFHGQDDDEDMLERDAVRLHSVPLIKGSPAIGRPLGTLGLETFKTSVTAIRRQGIRALDPEPNTLLELGDIVVLRGTPDGLQQAEERLSPR
- protein production: failed

Sequence: MHSPQISPPIAPSTPLLAGWRSAGKAPEAAIRGEAVSLQPLDAPRHGAALFRLFAGDDSHWEHLPYGPFEDEDAFITWLALTVAQSDTALYVVCAKDSDQALGFLGYRQMVQAHGAIEIGHVNFSPALRRTRLATEAVFLLLKTAFELGYRRCEWRCDSRNAASAAAARRFGFQFEGTLRQAMVVKRRNRDTHVFSMLDGEWDALK
- protein production: not failed

Sequence: MHSQFAPRLRQLRWYEIVLIATVAAALCIYLPIVVKRSAVQGFGDVQVFFRAAWAVWTGYPLYQVADHHGWTYHYPPTFALLMGPFAHPLDGFPKPDWALSLPLSVATWYVFSAAAMLAAVDLWARGLERALPPSLDQADWSAWWLLRLGPVAALLPFFGDGLGRGQPSAVVLLTMVAFLVLYLRGRIYLAACALALGFTIKLFPLALLIFPVLRRDLRTVLATFGFSAVFLFVVPMLCLGPSEVVKLYGAMWTEHLSGIFTGVPNPKIADEITFTSYDMLSIGAMLARIAAGGLPETDTLPRFATICQLMFDAVVIGALLWLGHGRFWRLRGPQPPLGPSLLIGGALLCAALPVMLSVSQPNYVAFAAPLVALVQFEVWRRRGRVCVVPALIAWSGLMWLGMIATEGGAWQPLRVVGLVTPALIALLLWGFASLRRAAAPP
- protein production: failed

Sequence: MHSQIWVVSTLLISIVLIVLTIVKFKFHPFLALLLASFFVGTMMGMGPLDMVNAIESGIGGTLGFLAAVIGLGTILGKMMEVSGAAERIGLTLQRCRWLSVDVIMVLVGLICGITLFVEVGVVLLIPLAFSIAKKTNTSLLKLAIPLCTALMAVHCVVPPHPAALYVANKLGADIGSVIVYGLLVGLMASLIGGPLFLKFLGQRLPFKPVPTEFADLKVRDEKTLPSLGATLFTILLPIALMLVKTIAELNMARESGLYILVEFIGNPITAMFIAVFVAYYVLGIRQHMSMGTMLTHTENGFGSIANILLIIGAGGAFNAILKSSSLADTLAVILSNMHMHPILLAWLVALILHAAVGSATVAMMGATAIVAPMLPLYPDISPEIIAIAIGSGAIGCTIVTDSLFWLVKQYCGATLNETFKYYTTATFIASVVALAGTFLLSFII
- protein production: failed

Sequence: MHSREYPFMLASMMFDFACLQISSLWERLLGAIGDAAGNALGRVVEAIRTLFEGDPETRRKVSFSVAIIALSAKMAKADGVVNDAEVRAFRQIFDFPDEEAKNVARLYNLARQDVAGYEAYAERLAGLCGSGHANCEMLESVIDGLFHIAKADGLIHERELAFLGRIAEIFRITEDHFETIMARHVHMDGRDPYRVLGVSPSDDFLDIRKRYRSLVAEHHPDKLIARGVPMELHAAANERMAALNAAYAAIEKERRVA
- protein production: failed

Sequence: MHTLNLGILAHVDAGKTSLTERLLHTVGVIDEIGSVDEGNTQTDSLALERQRGITIKSAVVSFAINDTTVNLIDTPGHPDFIAEVERVLSVLDGAVLVVSAVEGVQAQTRVLLRTLQRLRIPTLLFVNKIDRGGAGEERVLRAIAARLTPAIVPMGRAAGPGSRDARFIPYEAHDPGFGARLLDVLTEHDEELLAAYVKDTVSYGRLRTALVEQTRQALVHPVFFGSATTGAGVPELIAGIKELLPAAEGDPDGPVSGTVFKVERGPAGEKIAYARLFSGTVRTRDRLLFRDGEEGKVTAISVFDQGSAVREASVAAGRIGKLWGLAEIRIGDTFGEVPKAAEPSRHFSPPTLETVVVPGGRSDGGALHLALTQLAEQDPLINMRQDEIRREISLSLYGEVQKEVIQATLADAFGLDVTFRETTPICVERPVGTGAAVEFNGKGPHPFLATVGLRVEAAPVGSGVEFRLEVELGAMPYAFFKAVEDTVRETLGQGIHGWRVTDCTVTMTHSGYSPRQSHAHQGFDKSMSSTGADFRGLTPLVLMDALRQAGTRVHEPLHRFGLEAPADTLGAVLPVLAGLRAVVRTTRMREAVCVLEGLVPAAHVHELGQVLPGLTRGEGELETAFDHYAPVAGGTVPNRPRTDHNPLDRKEYLLNVTRRVGT
- protein production: failed

Sequence: MHTLVFLSTRQVLQCQPAACQALPLLPRELFPLLFKVAFMDKKTVVLRELVHTWPFPLLSFQQLLQECAHCSRALLQERPSTESMQAVILGLTARLHTSEPGASTQPLCRKHALRVLDMTGLLDDGVEQDPGTMSMWDCTAAVARTCIAQQQGGAAEPGPAPIPVEVRVDLRVNRASYAFLREALRSSVGSPLRLCCRDLRAEDLPMRNTVALLQLLDAGCLRRVDLRFNNLGLRGLSVIIPHVARFQHLASLRLHYVHGDSRQPSVDGEDNFRYFLAQMGRFTCLRELSMGSSLLSGRLDQLLSTLQSPLESLELAFCALLPEDLRFLARSPHAAHLKKLDLSGNDLSGSQLAPFQGLLQASAATLLHLELTECQLADTQLLATLPILTQCASLRYLGLYGNPLSMAGLKELLRDSVAQAELRTVVHPFPVDCYEGLPWPPPASVLLEASINEEKFARVEAELHQLLLASGRAHVLWTTDIYGRLAADYFSL
- protein production: failed

Sequence: MHTTFTFHLYPWILKYLKGGEGNFKYLHQENPKQEITDSSDKMSFWKDRMLIIPAVDIKDGKCVQLVQGKPGTEQVVLDDPAGVAGRWESLGAETIHVVDLDGALGLEKNTGILKEITERVSVPLQIGGGIRSREYAGKLLDMGFERVILGTMAIENPAIVEELAGEYGSERIMVSLDSRDSRVVIRGWTEKVPFTAEEMARKFQERGAGSILFTNVDFEGLLSGFDLKPVSELVEAVEIPVIYSGGVSSLNDLRMLQGTGVMGVVIGSAIYRGLIDLTEALKYQDLK
- protein production: failed

Sequence: MHVLTLDLAPVTPKDAPLLHRVFHLSPSYFALIGMELPTLEDVVRDLQTLEVDPRRRAFLLFLGQEPVGYLDAKLGYPEAEDATLSLLLIREDHQGRGLGRQALERFAAGLDGVRRLYAVVYGHNPKAKAFFQAQGFRYVK
- protein production: failed

Sequence: MHYAFSRIRLRSFFGWMIIGVFLIMIPLDLTNVSENTMEVISQITVFFVFPLLWLYVKTNKNNVVFNSFFDKPGRLSWGLIVLATIMGMIFSVGISQIQFYILAHTLPNFLVTMLEDGNVINTSNVYMTIFTFISACVLAPIMEEVIFRGFFLQRMAYKWGIKKAVIISSIIFGLGHFDVIGAFMFGVVMCLLYIKTKNIWTNIAVHALNNLIATSMQFFGGEESGTISITELQAQSNLWIGIGLTVVGLLWLIPYVWKQWRTVKEVGVPPVRFINEQKVVSSSQENEVYSQVILTDRLMAIELPDEAVNKLRLEENDYVTVSVEEDKIVIKKAHNR
- protein production: failed

Sequence: MHYPVLVNPRKPSLSRMPMKKPKRASAAKAKKGRKISASRSKPATKRPAKPPRRGASLDGTKDSAKIIRGLRSKLKAAERRVAELEAAADTDFLLEIPNRRGFERELTRAIAYMKRYRATGALIVLDVDRLKPINDSFGHAAGDEVLKAIVGALTRQVRASDVVGRLGGDEFALLLWNLNETDAKAKAAAFEQTIDELSFVFRSQNVTAGASAGVALLGAHSDAGRALEEADAAMYVRKARRRHEPRIRLVSN
- protein production: failed

Sequence: MIAKEFETFLLGQEETFLTPAKNLAVLIDTHNADHATLLLSQMTYTRVPVVTDEKQFVGTIGLRDIMAYQMEHDLSQEIMADTDIVHMTKTDVAVVSPDFTITEVLHKLVDESFLPVVDAEGIFQGIITRKSILKAVNALLHDFSKEYEIRCQ
- protein production: not failed

Sequence: MIALLPAYLLWVVLSLLEYNRQAREQIQDDIFREREYASVALRGISDAVVSIDTEQVIQYLNPAAEALLGLPAAQLLQRRLKQVAPLHYEFSRQPVQDPIEQAIATQQVVHLAQNCYLKRHNGEKLLVEGAVAPLLGRNGQLIGSVLTFRDTAPIRRRMLAALEASESRLRQHELELARVTRINTMGEMASGIAHEINQPLSAIMSYCQAGLSLLEDDELDMAMLRRALTSSVSQADRAGRIIHRLREFVTQKNQQLAPVQLNQAVHNALSLLDYELHDHDIHIEQNFAPELPLVYADTIQLEQVVLNLARNAVEAMEPTRPWGRLSITTRRQGERVQLIISDNGCGIPPDKLDRIFDPFFSTKPNGMGLGLAICQTAVEAFGGKLIAGNKPGSGAEFIIDLPCAPRDMAVPSGVEA
- protein production: failed

Sequence: MIAMDIREIGLRLVGEAIKAADPYRAVLNAVKVSDDKIIVQGKEFEIKGKVYVIALGKAACEMARAIEDILDVEDGVAVTKYGYGKELKRIKVIEAGHPIPDEKSILGAKEALSILNRARENDIVFILISGGGSALFELPEEGISLEDLKLTTDLLLKSGAKIHEINTVRKHISKVKGGKLAKMIKGTGIVLIISDVVGDNLEAIASGPTVKDPTTFEDAKRILELYDIWEKVPESVRLHIERGLRGEVEETLKEDLPNVHNFLIASNSISCEAIAREAQRLGFKAYIMTTTLEGEAKDAGLFIGSIVQEIAERGRPFEPPVVLVFGGETTVTIEGKGGKGGPNQEIALSATRKISDLEALIVAFDTDGTDGPTDAAGGIVDGTTYKKLREKGIDVEKVLKEHNSYEALKKVGGLLFTGPTGTNVNSIVIAIVTSKRGRT
- protein production: not failed

Sequence: MIASVASTTKDRLEIVKAFRNKEITILIATSILERGVTFPNVDVFVINSEHPNFTKSALIQMAGRVGRSPERPTGLVSFFHYGKSKAMCQAVREIKKMNQLGCFSLEHHHHHH
- protein production: failed

Reference: a protein production outcome set (Wang et al. 2014)
